For assay [1], the target named is BiP EPR construct BiP-C41A/C420A/V429C (human, UniProt P11021 19-654, C41A | C420A | V429C). In words: FP.
The next assay deals with human BiP, wild type (human, UniProt P11021 19-654). The experiment in a line: FP.
For assay [2], the target named is BiP FRET construct BiP-C41A/C420A/V429C/T462C (human, UniProt P11021 19-654, C41A | C420A | V429C | T462C). The experiment in a line: FP.
For a further assay, the target named is BiP-C41A/C420A (Homo sapiens). In words: FP.
Chain of BiP-C41A/C420A (Homo sapiens) (chain, as listed by the source C41A C420A): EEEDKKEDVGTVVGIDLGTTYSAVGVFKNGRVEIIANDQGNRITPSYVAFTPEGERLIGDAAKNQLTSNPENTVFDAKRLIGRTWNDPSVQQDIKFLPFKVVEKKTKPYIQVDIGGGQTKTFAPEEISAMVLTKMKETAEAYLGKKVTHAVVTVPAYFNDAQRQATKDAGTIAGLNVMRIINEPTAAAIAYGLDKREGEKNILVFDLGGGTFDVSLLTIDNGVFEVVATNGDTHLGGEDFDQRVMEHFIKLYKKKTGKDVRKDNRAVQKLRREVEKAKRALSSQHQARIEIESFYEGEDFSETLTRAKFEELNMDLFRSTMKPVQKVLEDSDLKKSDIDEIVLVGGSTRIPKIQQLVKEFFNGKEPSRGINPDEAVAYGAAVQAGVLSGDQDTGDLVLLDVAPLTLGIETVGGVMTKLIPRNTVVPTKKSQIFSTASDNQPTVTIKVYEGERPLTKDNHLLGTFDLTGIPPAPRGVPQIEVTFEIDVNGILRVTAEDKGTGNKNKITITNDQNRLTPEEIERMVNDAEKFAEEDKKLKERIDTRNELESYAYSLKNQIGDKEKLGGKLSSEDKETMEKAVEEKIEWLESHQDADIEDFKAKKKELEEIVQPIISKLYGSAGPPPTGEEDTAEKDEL
The target of the next assay is T1, DnaK-C15A/M404C/T437C (Escherichia coli (strain K12)).
T1 chain: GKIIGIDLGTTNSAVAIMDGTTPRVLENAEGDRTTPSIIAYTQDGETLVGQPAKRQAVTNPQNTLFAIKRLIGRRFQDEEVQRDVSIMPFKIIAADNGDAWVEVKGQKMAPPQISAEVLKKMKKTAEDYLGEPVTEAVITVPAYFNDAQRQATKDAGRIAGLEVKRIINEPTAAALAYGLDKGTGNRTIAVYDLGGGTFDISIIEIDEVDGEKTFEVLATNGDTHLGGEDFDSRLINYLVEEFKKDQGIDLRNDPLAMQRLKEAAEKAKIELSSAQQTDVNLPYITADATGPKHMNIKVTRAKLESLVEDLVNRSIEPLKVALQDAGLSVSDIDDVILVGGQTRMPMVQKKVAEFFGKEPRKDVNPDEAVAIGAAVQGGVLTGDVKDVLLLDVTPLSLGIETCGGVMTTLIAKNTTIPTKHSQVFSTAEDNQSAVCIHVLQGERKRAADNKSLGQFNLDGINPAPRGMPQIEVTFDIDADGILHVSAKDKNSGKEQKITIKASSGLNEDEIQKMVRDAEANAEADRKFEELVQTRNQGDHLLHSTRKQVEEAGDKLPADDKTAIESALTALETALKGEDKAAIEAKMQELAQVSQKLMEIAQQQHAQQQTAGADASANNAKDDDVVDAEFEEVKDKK
In words: FP.

Assay [3] deals with TMR-labeled DnaK (DnaK FRET construct C15A/M404C/T437C labelled with tetramethylrhodamine) (E. coli, UniProt P0A6Y8 1-638, C15A | M404C | T437C, tetramethylrhodamine (TMR, from 5-IATR) on both introduced cysteines (M404C, T437C)). In words: ATP.

No end group written: not given here.

Chain of human BiP, wild type (P11021 19-654): as the sequence (chain, as listed by the source C41A C420A) above, with A23C, A402C counted along it
Chain of BiP FRET construct BiP-C41A/C420A/V429C/T462C (P11021 19-654 C41A/C420A/V429C/T462C): as the sequence (chain, as listed by the source C41A C420A) above, with V411C, T444C counted along it
Chain of BiP EPR construct BiP-C41A/C420A/V429C (P11021 19-654 C41A/C420A/V429C): as the sequence (chain, as listed by the source C41A C420A) above, with V411C counted along it

On to fluorescein-NRLLLTG [NR peptide (NRLLLTG), fluorescein-labelled], for which the Kd in assay [1] amounted to 820 nM; with human BiP, wild type it was 910 nM; in assay [2], 610 nM; with BiP-C41A/C420A it was 850 nM; with DnaK-C15A/M404C/T437C, 2120 nM.

B1: DnaJ (natural protein)
chain: MAKQDYYEILGVSKTAEEREIRKAYKRLAMKYHPDRNQGDKEAEAKFKEIKEAYEVLTDSQKRAAYDQYGHAAFEQGGMGGGGFGGGADFSDIFGDVFGDIFGGGRGRQRAARGADLRYNMELTLEEAVRGVTKEIRIPTLEECDVCHGSGAKPGTQPQTCPTCHGSGQVQMRQGFFAVQQTCPHCQGRGTLIKDPCNKCHGHGRVERSKTLSVKIPAGVDTGDRIRLAGEGEAGEHGAPAGDLYVQVQVKQHPIFEREGNNLYCEVPINFAMAALGGEIEVPTLDGRVKLKVPGETQTGKLFRMRGKGVKSVRGGAQGDLLCRVVVETPVGLNERQKQLLQELQESFGGPTGEHNSPRSKSFFDGVKKFFDDLTR
In the case of B1, the dissociation constant (Kd) in assay [3] came out at 182 nM.

For orientation: Kd means a measure of binding affinity in units of concentration. Lower therefore signals higher affinity.
